Results from US6780984B2, “Method for prognosing cancer and the proteins involved” (Northwestern University, priority 2000, dated 2004).

Columns and labels:
PC3 cells = test: Soft agar assay (anchorage-independent growth); type: cell-based, human; details: stable overexpression in PC3 sublines
Protocol: FIGS. 4A-4D show the effect of calreticulin overexpression on colony formation of PC3 cells in a soft agar assay, PC3 (FIG. 4A), Mock (FIG. 4B), Crt 35 (FIG. 4C) and Crt 59 (FIG. 4). The soft agar assay was conducted in 6-well plates. The bottom agar is 2 ml 0.6% noble agar containing 1×RPMI 1640 medium supplemented with 10% fetal bovine serum (FBS). After the preparation of bottom agar, 1 ml of 0.3% top agar containing 5,000 cells and 1×RPMI 1640 medium supplemented with 10% FBS was added to form the top layer. The assay for each PC3 subline was carried out in duplicate and was repeated at least 3 times.
Colonies with greater than 125 um in diameter were counted in the quantification. Error bars represent standard error means (SEM).
Soft agar assay: The soft agar assay was conducted in 6-well plates. The bottom agar is 2 ml 0.6% noble agar containing 1×RPMI 1640 medium supplemented with 10% FBS. After the preparation of bottom agar, 1 ml of 0.3% top agar containing 5,000 cells and 1×RPMI 1640 medium supplemented with 10% FBS was added to form the top layer. The assay for each PC3 subline was carried out in duplicate and was repeated at least 3 times.

[1] = system: TSU prostate cancer cells; test: Anchorage-independent growth of TSU cells; type: cell-based, human; details: overexpression in TSU cells
Source text: Anchorage-independent growth in soft agar correlates with the metastatic potential of cancer cells [Cifone and Fidler, Proc. Nat. Acad. Sci. USA, 77:1039-43 (1980)].

prostate cancer cell = test: Effect of calreticulin overexpression on other cellular functions; type: cell-based
[2] = system: xenograft rat Dunning AT3.1 prostate cancer cells; test: Metastasis of AT3.1 xenografts in nude mice; type: in vivo; details: restoration of calreticulin expression
[3] = Repeat A of the Proline-rich Domain; read-out: Kd, high affinity Ca++ binding; cited from earlier work

B1: calreticulin: multi-functional Ca++ binding protein of the endoplasmic reticulum, human SEQ ID NO:36; overexpressed from pcDNA3.1/crt (protein)
chain: MLLSVPLLLGLLGLAVAEPAVYFKEQFLDGDGWTSRWIESKHKSDFGKFVLSSGKFYGDEEKDKGLQTSQDARFYALSASFEPFSNKGQTLVVQFTVKHEQNIDCGGGYVKLFPNSLDQTDMHGDSEYNIMFGPDICGPGTKKVHVIFNYKGKNVLINKDIRCKDDEFTHLYTLIVRPDNTYEVKIDNSQVESGSLEDDWDFLPPKKIKDPDASKPEDWDERAKIDDPTDSKPEDWDKPEHIPDPDAKKPEDWDEEMDGEWEPPVIQNPEYKGEWKPRQIDNPDYKGTWIHPEIDNPEYSPDPSIYAYDNFGVLGLDLWQVKSGTIFDNFLITNDEAYAEEFGNETWGVTKAAEKQMKDKQDEEQRLKEEEEDKKRKEEEEAEDKEDDEDKDEDEEDEEDKEEDEEEDVPGQAKDEL
With B1 as the molecule, how does the “colony formation in soft agar” value (PC3 cells) read?
The value was “significantly inhibited the size and number of the PC3 colonies”.

And the anchorage-independent growth [1]?
The anchorage-independent growth was “markedly inhibited anchorage-independent growth”.

And the “Ca++ ionophore-induced apoptosis” value (prostate cancer cell)?
Its value is “inhibits Ca^((+))((+)) ionophore-induced apoptosis”.

And the cell attachment (prostate cancer cell)?
Its cell attachment is “enhances cell attachment”.

What about the cell proliferation (prostate cancer cell) of the same molecule?
Its cell proliferation is “inhibits prostate cancer cell proliferation”.

What about the metastasis of xenograft [2] of the same molecule?
The metastasis of xenograft was “markedly inhibits the metastasis”.

And the Kd [3]?
Its Kd is 1.6 µM.
